Assay results published in patent US20060177894A1 (published 2006).
Changes are numbered by the printed parent chain. Names may count otherwise. One block for each binder: values may come before it.

Legend:
[1] = molecular target: T1, rat lutropin receptor (LHR) (rat, UniProt P16235 27-700); assay: inhibition of 125I-hCG binding to CHO cells with rat LHR; from IC50; native β-subunit analog
T1 construct: whole, on cells; also called LH receptor

[2] = molecular target: T1, rat lutropin receptor (LHR); assay: inhibition of 125I-hCG binding to CHO cells with rat LHR; from IC50; acid-stable hCGβ-S138C analog
[3] = molecular target: T1, rat lutropin receptor (LHR); assay: cell-based or functional assay
[4] = molecular target: T1, rat lutropin receptor (LHR); assay: LHR binding and signaling assays
[5] = molecular target: T1, rat lutropin receptor (LHR); assay: LHR binding assay

T1 sequence (P16235 27-700): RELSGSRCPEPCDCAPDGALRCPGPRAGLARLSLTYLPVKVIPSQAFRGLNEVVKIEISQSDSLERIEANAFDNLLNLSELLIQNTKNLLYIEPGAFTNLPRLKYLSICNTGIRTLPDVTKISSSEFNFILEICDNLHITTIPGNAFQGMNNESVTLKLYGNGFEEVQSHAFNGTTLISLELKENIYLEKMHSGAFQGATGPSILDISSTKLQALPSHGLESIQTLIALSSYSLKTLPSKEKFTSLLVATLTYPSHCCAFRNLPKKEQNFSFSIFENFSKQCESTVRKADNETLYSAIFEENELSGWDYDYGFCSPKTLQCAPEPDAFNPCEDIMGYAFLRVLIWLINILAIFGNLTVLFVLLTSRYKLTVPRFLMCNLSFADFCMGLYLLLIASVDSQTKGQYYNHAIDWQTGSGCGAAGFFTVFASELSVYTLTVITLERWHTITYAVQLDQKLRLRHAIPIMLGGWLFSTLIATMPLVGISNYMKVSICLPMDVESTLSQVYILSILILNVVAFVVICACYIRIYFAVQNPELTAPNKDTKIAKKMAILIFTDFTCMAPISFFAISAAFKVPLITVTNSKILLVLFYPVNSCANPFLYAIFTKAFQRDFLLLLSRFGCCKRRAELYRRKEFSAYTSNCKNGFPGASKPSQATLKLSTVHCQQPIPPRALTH

B1: hCG-αK44A (ligand)
chain 1: not shown
chain 2: SKEPLRPRCRPINATLAVEKEGCPVCITVNTTICAGYCPTMTRVLQGVLPALPQVVCNYRDVRFESIRLPGCPRGVNPVVSYAVALSCQCALCRRSTTDCGGPKDHPLTCDDPRFQDSSSSKAPPPSLPSPSRLPGPSDTPILPQ
notes: mature; heterodimer from COS-7 medium; also called αK44A+hCGβ
Receptor-Binding potency (percent hCG) [1]: 84 % of hCG

B2: αN52C + hCGβ-S138C (ligand)
chain 1: not shown
chain 2: B1 chain 2 with S138C
notes: mature; disulfide αCys52-βCys138; lacks the αAsn52 oligosaccharide
Receptor-Binding potency (percent hCG) [2]: 61 % of hCG

B4: αK45C + hCGβ-S138C (ligand)
chain 1: not shown
chain 2: B1 chain 2 with S138C
notes: mature; disulfide αCys45-βCys138
Signal transduction potency (cAMP accumulation), acid-stable analog [3]: 168 % of hCG | Receptor-Binding potency (percent hCG) [2]: 223 % of hCG

B5: αL48C + β (ligand)
chain 1: not shown
chain 2: B1 chain 2
notes: mature; heterodimer from COS-7 medium; also called hCG-αL48C
Signal Transduction potency (cAMP accumulation) [3]: 147 % of hCG | Receptor-Binding potency (percent hCG) [1]: 60 % of hCG

B7: αQ50C + β (ligand)
chain 1: not shown
chain 2: B1 chain 2
notes: mature; heterodimer from COS-7 medium; also called hCG-αQ50C
Signal Transduction potency (cAMP accumulation) [3]: 216 % of hCG | Receptor-Binding potency (percent hCG) [1]: 81 % of hCG

B8: αK44C + β (ligand)
chain 1: not shown
chain 2: B1 chain 2
notes: mature; heterodimer from COS-7 medium; also called hCG-αK44C
Signal Transduction potency (cAMP accumulation) [3]: 97 % of hCG | Receptor-Binding potency (percent hCG) [1]: 66 % of hCG

B9: αQ50C + hCGβ-S138C (ligand)
chain 1: not shown
chain 2: B1 chain 2 with S138C
Signal transduction potency (cAMP accumulation), acid-stable analog [3]: 308 % of hCG

B10: αK45C + β (ligand)
chain 1: not shown
chain 2: B1 chain 2
notes: mature; heterodimer from COS-7 medium; also called hCG-αK45C
Signal Transduction potency (cAMP accumulation) [3]: 91 % of hCG | Receptor-Binding potency (percent hCG) [1]: 93 % of hCG

B12: αH90C + hCGβ-S138C (ligand)
chain 1: not shown
chain 2: B1 chain 2 with S138C
notes: mature; disulfide αCys90-βCys138
Signal transduction potency (cAMP accumulation), acid-stable analog [3]: 1 % of hCG | Receptor-Binding potency (percent hCG) [2]: 3.1 % of hCG

B13: αK91C + β (ligand)
chain 1: not shown
chain 2: B1 chain 2
notes: mature; heterodimer from COS-7 medium; also called hCG-αK91C
Signal Transduction potency (cAMP accumulation) [3]: 56 % of hCG | Receptor-Binding potency (percent hCG) [1]: 41 % of hCG

B14: αR42C + hCGβ-S138C (ligand)
chain 1: not shown
chain 2: B1 chain 2 with S138C
notes: mature; disulfide αCys42-βCys138
Signal transduction potency (cAMP accumulation), acid-stable analog [3]: 332 % of hCG | Receptor-Binding potency (percent hCG) [2]: 327 % of hCG

B15: hCG-αCTδ116/135,138C + hCG β-subunit analog with cysteine in place of Arg95 (ligand)
chain 1: not shown
chain 2: B1 chain 2 with N77P, P78N, R95C
notes: also called knob at β-subunit residue 95
binding result [4]: no binding

B16: hCG-αCTδ116/135,138C + hCG β-subunit analog with cysteine in place of Asp99 (ligand)
chain 1: not shown
chain 2: B1 chain 2 with N77P, P78N, D99C
notes: also called knob at β-subunit residue 99
binding result [4]: no binding

B19: hCG-αM47A (ligand)
chain 1: not shown
chain 2: B1 chain 2
notes: mature; heterodimer from COS-7 medium
Receptor-Binding potency (percent hCG) [1]: 83 % of hCG

B22: hCG-αK91E (ligand)
chain 1: not shown
chain 2: B1 chain 2
notes: mature; heterodimer from COS-7 medium; also called αK91E+hCGβ
Signal Transduction potency (cAMP accumulation) [3]: 1.1 % of hCG | Receptor-Binding potency (percent hCG) [1]: 4.3 % of hCG | fold lower affinity than hCG [5]: ~10 fold

B24: αL48C + hCGβ-S138C (ligand)
chain 1: not shown
chain 2: B1 chain 2 with S138C
notes: mature; disulfide αCys48-βCys138; also called hCGβS138C+αL48C
Signal transduction potency (cAMP accumulation), acid-stable analog [3]: 99 % of hCG | Receptor-Binding potency (percent hCG) [2]: 66 % of hCG

B26: hCG-αK44E, K45Q (ligand)
alpha: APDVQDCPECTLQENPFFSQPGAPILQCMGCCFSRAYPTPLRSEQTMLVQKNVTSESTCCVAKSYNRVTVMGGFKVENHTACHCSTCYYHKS
beta: B1 chain 2
modifications: Glycosylated heterodimer secreted by COS-7 cells; no engineered intersubunit disulfide.
notes: heterodimer from COS-7 medium; also called αK44E, K45Q+hCGβ
Signal Transduction potency (cAMP accumulation) [3]: 42 % of hCG | Receptor-Binding potency (percent hCG) [1]: 58 % of hCG

B28: αH90C + β (ligand)
chain 1: not shown
chain 2: B1 chain 2
notes: mature; heterodimer from COS-7 medium; also called hCG-αH90C
Signal Transduction potency (cAMP accumulation) [3]: 65 % of hCG | Receptor-Binding potency (percent hCG) [1]: 30 % of hCG

B29: αK44C + hCGβ-S138C (ligand)
chain 1: not shown
chain 2: B1 chain 2 with S138C
notes: mature; disulfide αCys44-βCys138
Signal transduction potency (cAMP accumulation), acid-stable analog [3]: 191 % of hCG | Receptor-Binding potency (percent hCG) [2]: 250 % of hCG

B30: αM47C + β (ligand)
chain 1: not shown
chain 2: B1 chain 2
notes: mature; heterodimer from COS-7 medium; also called hCG-αM47C
Signal Transduction potency (cAMP accumulation) [3]: 23 % of hCG | Receptor-Binding potency (percent hCG) [1]: 8.7 % of hCG

B31: αK91C + hCGβ-S138C (ligand)
chain 1: not shown
chain 2: B1 chain 2 with S138C
notes: mature; disulfide αCys91-βCys138
Receptor-Binding potency (percent hCG) [2]: 2.2 % of hCG

B32: hCG-αK91M (ligand)
chain 1: not shown
chain 2: B1 chain 2
notes: mature; heterodimer from COS-7 medium; also called αK91M+hCGβ
Signal Transduction potency (cAMP accumulation) [3]: 66 % of hCG | Receptor-Binding potency (percent hCG) [1]: 68 % of hCG

B35: αM47C + hCGβ-S138C (ligand)
chain 1: not shown
chain 2: B1 chain 2 with S138C
notes: mature; disulfide αCys47-βCys138
Signal transduction potency (cAMP accumulation), acid-stable analog [3]: 2.4 % of hCG | Receptor-Binding potency (percent hCG) [2]: 4.1 % of hCG

More lines, now with the values ahead:

Receptor-Binding potency (percent hCG) [2]: 89 % of hCG
B3: αS64C/hCG-βS138C (ligand)
chain 1: not shown
chain 2: B1 chain 2 with S138C
notes: mature; disulfide αCys64-βCys138; also called hCGβS138C+αS64C

Signal Transduction potency (cAMP accumulation) [3]: 74 % of hCG | Receptor-Binding potency (percent hCG) [1]: 141 % of hCG
B6: αY88C + β (ligand)
chain 1: not shown
chain 2: B1 chain 2
notes: mature; heterodimer from COS-7 medium; also called hCG-αY88C

Signal transduction potency (cAMP accumulation), acid-stable analog [3]: 13 % of hCG | Receptor-Binding potency (percent hCG) [2]: 28 % of hCG
B11: αS92C + hCGβ-S138C (ligand)
chain 1: not shown
chain 2: B1 chain 2 with S138C
notes: mature; disulfide αCys92-βCys138

Signal Transduction potency (cAMP accumulation) [3]: 38 % of hCG | Receptor-Binding potency (percent hCG) [1]: 100 % of hCG
B17: αS92C + β (ligand)
chain 1: not shown
chain 2: B1 chain 2
notes: mature; heterodimer from COS-7 medium; also called hCG-αS92C

Signal Transduction potency (cAMP accumulation) [3]: 74 % of hCG | Receptor-Binding potency (percent hCG) [1]: 35 % of hCG
B18: αS43C + β (ligand)
chain 1: not shown
chain 2: B1 chain 2
notes: mature; heterodimer from COS-7 medium; also called hCG-αS43C

Signal transduction potency (cAMP accumulation), acid-stable analog [3]: 43 % of hCG | Receptor-Binding potency (percent hCG) [2]: 17 % of hCG
B20: αS43C + hCGβ-S138C (ligand)
chain 1: not shown
chain 2: B1 chain 2 with S138C
notes: mature; disulfide αCys43-βCys138

Signal Transduction potency (cAMP accumulation) [3]: 444 % of hCG | Receptor-Binding potency (percent hCG) [1]: 95 % of hCG
B21: αT86C + β (ligand)
chain 1: not shown
chain 2: B1 chain 2
notes: mature; heterodimer from COS-7 medium; also called hCG-αT86C

Signal Transduction potency (cAMP accumulation) [3]: 133 % of hCG | Receptor-Binding potency (percent hCG) [1]: 70 % of hCG
B23: αV49C + β (ligand)
chain 1: not shown
chain 2: B1 chain 2
notes: mature; heterodimer from COS-7 medium; also called hCG-αV49C

Signal transduction potency (cAMP accumulation), acid-stable analog [3]: 52 % of hCG | Receptor-Binding potency (percent hCG) [2]: 50 % of hCG
B25: αT46C + hCGβ-S138C (ligand)
chain 1: not shown
chain 2: B1 chain 2 with S138C
notes: mature; disulfide αCys46-βCys138

Signal transduction potency (cAMP accumulation), acid-stable analog [3]: 99 % of hCG | Receptor-Binding potency (percent hCG) [2]: 71 % of hCG
B27: αV49C + hCGβ-S138C (ligand)
chain 1: not shown
chain 2: B1 chain 2 with S138C
notes: mature; disulfide αCys49-βCys138

Signal Transduction potency (cAMP accumulation) [3]: 103 % of hCG | Receptor-Binding potency (percent hCG) [1]: 113 % of hCG
B33: αR42C + β (ligand)
chain 1: not shown
chain 2: B1 chain 2
notes: mature; heterodimer from COS-7 medium; also called hCG-αR42C

Receptor-Binding potency (percent hCG) [1]: 149 % of hCG
B34: αV53C + β (ligand)
chain 1: not shown
chain 2: B1 chain 2
notes: mature; heterodimer from COS-7 medium; also called hCG-αV53C

Signal Transduction potency (cAMP accumulation) [3]: 56 % of hCG | Receptor-Binding potency (percent hCG) [1]: 38 % of hCG
B36: αT46C + β (ligand)
chain 1: not shown
chain 2: B1 chain 2
notes: mature; heterodimer from COS-7 medium; also called hCG-αT46C
